Results from US20070104676A1, “Cosmetic and/or dermatological preparations containing an extract from the seeds of plants of the genus adenanthera” (COGNIS FRANCE S.A., priority 2003, published 2007).
Blank lines part the entries; values can stand above or below the molecule they belong to.

Legend:
pancreas elastase = pancreas elastase (Sus scrofa, UniProt P00772); assay: Inhibition of elastase activity; format: biochemical
Procedure: In order to test the effectiveness of the plant extract in inhibiting the release of elastase, pancreas elastase (a serine protease) was investigated and, as substrate, elastin was marked with a chromogenic synthetic substrate. The system was incubated with the active principles for 30 minutes at room temperature and then, after centrifuging, the optical density of the dye was determined at 410 nm. The extracts were used in a quantity of 0.3% by weight. The results are set out in Table 1 where they are expressed relative to a control as standard (=0%); a1-antitrypsin was used as the standard.

Human plasmin = molecular target: T1, Human plasmin (Homo sapiens, UniProt P00747); assay: Inhibition of plasmin activity (quenched fluorescent casein hydrolysis); format: biochemical; conditions: reference substance
T1 construct: purchased Sigma
Procedure: Method: Human plasmin obtained from Sigma was mixed with the extract in a quantity of 0.3% by weight and incubated for a few minutes at 20° C. Natural casein marked with a quenched fluorescence probe (Interchim natural) was then added. The protease-catalyzed hydrolysis degraded the quenching and produced a fluorescence signal. The proportion of hydrolyzed substrate was determined by measuring the increased green fluorescence over a period of 30 minutes. […] The inhibition of enzyme activity was evaluated by comparison with a control and a reference substance SBT1 (Sigma).

T1 sequence (P00747 581-810 limits assumed): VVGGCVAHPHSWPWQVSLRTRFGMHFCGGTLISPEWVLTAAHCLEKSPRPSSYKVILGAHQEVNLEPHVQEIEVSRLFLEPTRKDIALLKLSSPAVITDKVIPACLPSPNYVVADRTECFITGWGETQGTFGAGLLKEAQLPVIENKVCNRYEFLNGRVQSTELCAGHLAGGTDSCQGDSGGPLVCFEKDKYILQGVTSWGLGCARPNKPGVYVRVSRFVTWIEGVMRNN
T1 sequence (P00747 97-580 partner limits assumed): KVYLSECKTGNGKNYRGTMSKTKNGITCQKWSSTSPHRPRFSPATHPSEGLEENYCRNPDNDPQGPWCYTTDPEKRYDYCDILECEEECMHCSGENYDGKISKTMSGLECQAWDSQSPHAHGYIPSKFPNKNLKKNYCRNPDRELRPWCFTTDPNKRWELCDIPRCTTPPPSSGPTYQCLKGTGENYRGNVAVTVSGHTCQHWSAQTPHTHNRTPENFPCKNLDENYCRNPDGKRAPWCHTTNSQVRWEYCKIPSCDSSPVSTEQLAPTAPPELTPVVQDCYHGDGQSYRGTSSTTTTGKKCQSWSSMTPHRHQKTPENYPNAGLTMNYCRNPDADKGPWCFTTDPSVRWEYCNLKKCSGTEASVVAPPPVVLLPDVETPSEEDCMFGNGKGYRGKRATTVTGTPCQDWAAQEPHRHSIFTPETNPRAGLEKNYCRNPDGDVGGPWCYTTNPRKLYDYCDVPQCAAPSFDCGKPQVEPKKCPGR
Sequence of pancreas elastase (P00772 27-266): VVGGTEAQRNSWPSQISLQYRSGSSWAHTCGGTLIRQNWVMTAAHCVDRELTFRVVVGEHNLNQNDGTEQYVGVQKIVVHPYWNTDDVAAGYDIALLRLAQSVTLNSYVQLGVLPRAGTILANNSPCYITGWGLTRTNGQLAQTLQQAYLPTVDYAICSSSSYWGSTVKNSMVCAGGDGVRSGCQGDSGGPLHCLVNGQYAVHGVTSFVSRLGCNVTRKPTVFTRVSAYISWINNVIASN

IC50 (elastase inhibition, standard) (pancreas elastase): IC50 = 0.13 mg/ml
Molecule: α1-anti-trypsin: Standard used in the elastase inhibition test

IC50 (plasmin inhibition, standard) (Human plasmin): 0.006%
B1: SBTI: Reference substance (Sigma) in the plasmin inhibition test (protein, UniProt P01070 25-205, looked up)
Trypsin inhibitor A: DFVLDNEGNPLENGGTYYILSDITAFGGIRAAPTGNERCPLTVVQSRNELDKGIGTIISSPYRIRFIAEGHPLSLKFDSFAVIMLCVGIPTEWSVVEDLPEGPAVKIGENKDAMDGWFRLERVSDDEFNNYKLVFCPQQAEDDKCGDIGISIDHDDGTRRLVVSKNKPLVVQFQKLDKESL
